This assay concerns the target T1, recombinant EBOV GP (Ebola virus (EBOV), UniProt Q05320 33-650).
T1 sequence: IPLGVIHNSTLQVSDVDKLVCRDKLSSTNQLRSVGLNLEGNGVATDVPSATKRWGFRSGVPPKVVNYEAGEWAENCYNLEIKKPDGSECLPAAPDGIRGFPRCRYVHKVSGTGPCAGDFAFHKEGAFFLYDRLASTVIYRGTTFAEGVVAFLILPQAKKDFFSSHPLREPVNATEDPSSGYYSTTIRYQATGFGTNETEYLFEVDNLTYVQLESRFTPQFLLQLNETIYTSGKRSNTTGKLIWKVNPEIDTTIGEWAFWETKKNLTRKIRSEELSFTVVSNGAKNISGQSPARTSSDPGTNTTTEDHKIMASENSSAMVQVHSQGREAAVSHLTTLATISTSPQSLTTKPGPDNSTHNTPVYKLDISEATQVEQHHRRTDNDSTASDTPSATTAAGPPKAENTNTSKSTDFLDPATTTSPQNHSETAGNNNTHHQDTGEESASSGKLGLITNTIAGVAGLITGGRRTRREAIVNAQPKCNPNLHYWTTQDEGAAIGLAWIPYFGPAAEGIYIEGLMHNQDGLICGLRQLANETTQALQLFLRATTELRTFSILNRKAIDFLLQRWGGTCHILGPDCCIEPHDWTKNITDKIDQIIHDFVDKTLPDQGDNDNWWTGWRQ
Put plainly: ELISA on plates coated with recombinant EBOV GP. A general note: An ELISA detects its analyte on a solid surface through an enzyme-linked reagent.

B1: X10B1 human IgG1 chimeric mAb (antibody, V domains shown)
VH: EVQLLESGPSLVKPSETLTLTCAVSGASISGDYLNWIRQPPGKGLEWIGGIFGSGGSTDYSPSFKSRVTISTDTSKNQFSLKLTSMTTADTAVYFCATALRGARFDAFDFWGQGRRV
VL: DIELTQSPATLSLSPGERATLSCRASQSVSTYLAWYQKKPGQAPRLLFYGASNRATGIPDRFSGRRSGTDFTLTISSLEPEDVGVYYCQQYNKWNSFGQGTKVEIK
With B1, the binding result was “no binding”.

B2: 17F6 human IgG1 chimeric mAb (antibody, V domains shown)
VH: DVQLQESGPGLVKPSQTVSLTCTVTGISITAGNYRWSWIRQFPGNKLEWIGYIYYSGTIAYNPSLTSRTAITRDSSKNQFFLEMNSLTAEDTATYYCARDRGWLLLDYWGQGTTLTVSS
VL: DVLMTQTPLSLPVSLGDQASISCRSSQTIVHSNGNTYLEWYLQKPGQSPKLLIYKVSSRFSGVPDRFSGSGSGTDFTLKISRVEAEDLGVYYCFQGSHFPYTFGGGTKLEIKR
For the molecule B2, the binding result is “no binding”.

B3: 16F6 human IgG1 chimeric mAb (antibody, V domains shown)
VH: EVQLVESGGGLVTPGGSLKLSCAASGFAFNYYDMFWVRQNTEKRLEWVAYINSGGGNTYYPDTVKGRFTISRDNAKKTLFLQMSSLRSEDTAMYYCARQLYGNSFFDYWGQGTSLTV
VL: DIVMTQSHKFMSTSVGDRVTITCKASQDVTTAVAWYQQKPGHSPKLLIYWASTRHTGVPDRFTGSGSGTDFTLTLNSVQAEDLALYYCQQHYSTPLTFGAGTKLEL
For B3, the binding result is recorded as “no binding”.

B4: X10H2 human IgG1 chimeric mAb (antibody, V domains shown)
VH: QVQLEQSGAEVKKPGTSVKVSCKASGFTFGSDAISWVRQAPGQGLEWMGVIIPVVGARTYAEKFQGRITITADTSTSTVFMDLSSIRSDDTAVYYCAREGARAATGHYKSMDIWGRGTLV
VL: EIELTQSPSSLYASVGDKVTITCRASQGISTYLNWYQQKPGKAPKLLIYAASSLQSGVPSRFSGSGSGTEFTLTISSLQPEDFAAVYCQQYNSYPRTFGQGTKVEIK
In the case of B4, the binding result was “no binding”.

B5: X10F3 human IgG1 chimeric mAb (antibody, V domains shown)
VH: QVQLEQSGAEVKKPGTSVKVSCKASGFFTFGSDAISWVRQAPGQGLEWMGVIIPVVGARTYAEKFQGRITITADTSTSTVFMDLSSLRSDDTAVYYCAREGARAATGHYKSMDIWGRGRTLV
VL: ELQMTQSPSSLSASVGDRVTITCRASQDIGPFLNWYQHKPGKPPKLLIYDVSNLQDGVPSTFSGSGSGTDFTLTISNLQPEDFATYYCLHYANYPRTFGPGTKVEIK
Turning to B5, the binding result was “no binding”.

B6: X10B6 human IgG1 chimeric mAb (antibody, V domains shown)
VH: B5 VH
VL: ELLMTQSPSSLSASVGDRVTITCRASQGISTYLSWFQQKPGKPPKLLIYLTSSLEDGVPSRFSGAGSGTEFTLTISNLQPEDFASYYCLQYQSYPRTFGPGTKVEIK
Consider B6, for which the binding result is given as “no binding”.
